Data: publication PMC11623927, “Synthesis and biological assessment of chalcone and pyrazoline derivatives as novel inhibitor for ELF3-MED23 interaction” (eLife, 2024)
One block for each molecule: values may come before it. Ends that are not written are not given here.

Assays:
[1] = target: T1, MED23 (mediator of RNA polymerase II transcription subunit 23) (Homo sapiens, UniProt Q9ULK4); assay: cell-free fluorescence polarization displacement of FITC-ELF3_[…]-145 from (His)6-MED23_[…]-582; type: binding
T1 construct: (His)6-MED23_391-582; with ELF3 (FITC-labeled ELF3_129-145 peptide)

[2] = target: T2, (His)6-MED23_(391-582) protein (UniProt Q9ULK4 391-582); assay: fluorescence polarisation; cell-free; different concentrations of (His)6-MED23(391-582) with 10 nM FITC-ELF3(129-145) in assay buffer; least-squares non-linear fit; n=3; conditions: both partners purified
T2 construct: MED23 (mediator of RNA polymerase II transcription subunit 23), residues 391-582
T2 sequence (looked up): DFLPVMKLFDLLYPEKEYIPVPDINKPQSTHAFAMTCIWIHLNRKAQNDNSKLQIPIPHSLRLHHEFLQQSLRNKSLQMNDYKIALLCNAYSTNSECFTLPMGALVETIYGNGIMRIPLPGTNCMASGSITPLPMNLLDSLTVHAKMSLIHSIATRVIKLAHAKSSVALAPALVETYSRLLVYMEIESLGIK

[3] = target: T2, (His)6-MED23_(391-582) protein; assay: fluorescence polarisation; cell-free displacement; varying concentrations of unlabeled ELF3(137-144) peptide added to 80 nM (His)6-MED23(391-582) and 10 nM FITC-ELF3(129-145); Ki from IC50 by the Cheng-Prusoff equation; n=3; conditions: both partners purified
[4] = target: T3, (His)6-MED23_(391-582) protein (UniProt Q9ULK4 391-582); assay: FP; competition with FITC-ELF3(129-145)
T3 chain: T2 sequence (looked up)

[5] = target: T4, Cluc-MED23_(391-582) (UniProt Q9ULK4 391-582); assay: split reporter (BiFC, NanoBiT); split firefly luciferase complementation in HEK293 co-transfected with Nluc-ELF3 and Cluc-MED23(391-582); without compound 10; conditions: partners not purified
T4 construct: MED23 residues 391-582; also called MED23_(391-582) fragment fused with Cluc; source: HEK293, transfected, in cells
T4 sequence (looked up): T2 sequence (looked up)

- Kd [2]: 10.2 nM
B1: fluorescein isothiocyanate (FITC)-labeled ELF3_(129-145) peptide (peptide, UniProt P78545 129-145, looked up)
peptide: TSSSSDELSWIIELLEK
modifications: also: FITC label, position not given here
notes: also called ELF3-FITC peptide (17 a.a.)

- Ki [3]: 4470 nM
- IC50 [4]: 8810 nM
B2: unlabeled ELF3_(137-144) peptide (peptide, UniProt P78545 137-144, looked up)
peptide: SWIIELLE
notes: ELF3 residues 137-144 (S137 to E144), within the TAD domain; Positive control of the FP displacement assay

Further lines, the molecule ahead of its results:

Molecule: COc1ccc(/C=C/C(=O)c2cc(OC)c(OC)c(OC)c2)cc1OCC=C(C)C [compound 10, (E)–3-(4-Methoxy-3-((3-methylbut-2-en-1-yl)oxy)phenyl)–1-(3,4,5-trimethoxyphenyl) prop-2-en-1-one]
- Ki [1]: 680 ± 80 nM

B3: Nluc-ELF3WT (natural protein, UniProt P78545 1-371, looked up)
chain: MAATCEISNIFSNYFSAMYSSEDSTLASVPPAATFGADDLVLTLSNPQMSLEGTEKASWLGEQPQFWSKTQVLDWISYQVEKNKYDASAIDFSRCDMDGATLCNCALEELRLVFGPLGDQLHAQLRDLTSSSSDELSWIIELLEKDGMAFQEALDPGPFDQGSPFAQELLDDGQQASPYHPGSCGAGAPSPGSSDVSTAGTGASRSSHSSDSGGSDVDLDPTDGKLFPSDGFRDCKKGDPKHGKRKRGRPRKLSKEYWDCLEGKKSKHAPRGTHLWEFIRDILIHPELNEGLMKWENRHEGVFKFLRSEAVAQLWGQKKKNSNMTYEKLSRAMRYYYKREILERVDGRRLVYKFGKNSSGWKEEEVLQSRN
notes: ELF3, full-length cDNA, wild type; source: HEK293, transfected, in cells
- fold change of bioluminescence vs. control [5]: 32.7 fold
